Reference: patent US20250277045A1

Target: human BCMA recombinant antigen (human) (UniProt Q02223)
Assay: competition ELISA, coated human BCMA, antibody varied, then biotinylated human APRIL at 240 ng/mL, SA-HRP

Chain of human BCMA recombinant antigen (human) (Q02223 1-53): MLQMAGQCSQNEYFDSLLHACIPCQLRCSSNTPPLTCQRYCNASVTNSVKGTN

REGN5458 (bispecific antibody)
IC50 (read off the curve): 3 nM
